The text below walks through data of patent EP4711453A1, “PHENYLALANINE LYASE MUTANT, AND CONJUGATE THEREOF OR PHARMACEUTICALLY ACCEPTABLE SALT THEREOF” (Peg-Bio Biopharm Co., Ltd. (Chongqing), priority 2023, dated 2024).

A short description of the data set: Serum drug concentration after a single administration in phenylketonuria model mice (sandwich ELISA). It is filed as in vivo. Set-up: Blood drug concentration in serum: unit not given here. To be noted: Pah^enu mice. The source says:
Phenylalanine hydroxylase (PAH) was central to phenylalanine metabolism in animals, catalyzing the conversion of phenylalanine to tyrosine. Deficiency of this gene underlies phenylketonuria. […] Therefore, the homozygous mouse carrying the missense mutation F263S can be used as an animal model for phenylketonuria (referred to as the Pah^enu mouse or model mouse) in this drug study.
To evaluate the polyethylene glycol conjugate PL54 of the site-saturation modified phenylalanine lyase mutant, six Pah^enu mice were assigned to three groups of two mice each. PL54-5 (average degree of modification 13.60, specific enzyme activity 1.27 U/mg) from Table 3 of Example 2 was administered to the phenylketonuria animal model mice at low, medium, and high doses of 0.5 mg/kg, 1.5 mg/kg, and 4.5 mg/kg, respectively, via subcutaneous injection. Blood samples were collected from mice in each group at 1 h before administration and at 1, 3, 5, 7, 10, and 14 days after administration, respectively, and the content of PL54-5 in serum was detected by sandwich ELISA (for details, see Example 5).
(In general: An ELISA detects its analyte on a solid surface through an enzyme-linked reagent.)

Several values for one entry are separate records, joined by “and”; a condition that tells them apart may be missing. Identical values can stand only once.

B1: PL54-5: polyethylene glycol conjugate of PAL4 (SEQ ID NO: 6) with PEG-SPA-5K, molar ratio 1:16, average degree of modification 13.60 (conjugate)
chain: MKTLSQAQSKTSSQQFSFTGNSSANVIIGNQKLTINDVARVARNGTLVSLTNNTDILQGIQASCDYINNAVKSGEPIYGVTSGFGGMANVAISREQASELQTNLVWFLKTGAGNKLPLADVRAAMLLRANSHMRGASGIRLELIKRMEIFLNAGVTPYVYEFGSIGASGDLVPLSYITGSLIGLDPSFKVDFNGKEMDAPTALRQLNLSPLTLLPKEGLAMMNGTSVMTGIAANCVYDTKILTAIAMGVHALDIQALNGTNQSFHPFIHNSKPHPGQLWAADQMISLLANSQLVRDELDGKHDYRDHELIQDRYSLRCLPQYLGPIVDGISQIAKQIEIEINSVTDNPLIDVDNQASYHGGNFLGQYVGMGMDHLRYYIGLLAKHLDVQIALLASPEFSNGLPPSLLGNRERKVNMGLKGLQICGNSIMPLLTFYGNSIADRFPTHAEQFNQNINSQGYTSATLARKSVDIFQNYVAIALMFGVQAVDLRTYKKTGHYDARASLSPATERLYSAVRHVVGQKPTSDRPYIWNDNEQGLDEHIAKISADIAAGGVIVQAVQDILPSLH
modifications: PEG-SPA-5K conjugate, ~13.6 PEG per molecule
Turning to B1, the “Blood drug concentration in serum” value (single 0.5 mg/kg s.c., 1-D1, dilution 1:500) is 0.3; the “Blood drug concentration in serum” value (single 0.5 mg/kg s.c., 1-D3, dilution 1:500) is reported as 2.4; the “Blood drug concentration in serum” value (single 0.5 mg/kg s.c., 1-D5, dilution 1:500) came to 0.9; the “Blood drug concentration in serum” value (single 0.5 mg/kg s.c., 1-D7, dilution 1:500) amounted to 0.2; the “Blood drug concentration in serum” value (single 0.5 mg/kg s.c., 1-D10, dilution 1:500) is 0.1; the “Blood drug concentration in serum” value (single 0.5 mg/kg s.c., D0 (1 h before administration), dilution 1:50) is on record as 0. Besides, the “Blood drug concentration in serum” value reads like this: (single 1.5mg/kg s.c., 1-D1, dilution 1:500, 1.5 mg/kg) 0.5 and 0.6; (single 1.5mg/kg s.c., 1-D3, dilution 1:500, 1.5 mg/kg) 2.7 and 2.2; (single 1.5mg/kg s.c., 1-D5, dilution 1:500) 0.9; (single 1.5mg/kg s.c., 1-D7, dilution 1:500, 1.5 mg/kg) 0.4 and 0.3; (single 1.5mg/kg s.c., D0 (1 h before administration), dilution 1:50) 0; (single 4.5 mg/kg s.c., 1-D1, dilution 1:500, 4.5 mg/kg) 1.6 and 0.8. The “Blood drug concentration in serum” value is 2.6 and 2.9 (single 4.5 mg/kg s.c., 1-D3, dilution 1:500, 4.5 mg/kg); 1.9 and 1.2 (single 4.5 mg/kg s.c., 1-D5, dilution 1:500, 4.5 mg/kg); 0.8 and 0.4 (single 4.5 mg/kg s.c., 1-D7, dilution 1:500, 4.5 mg/kg); 0 (single 4.5 mg/kg s.c., 1-D10, dilution 1:500); 0.2 (single 4.5 mg/kg s.c., 1-D14, dilution 1:500); 0 (single 4.5 mg/kg s.c., D0 (1 h before administration), dilution 1:50). In addition, the “plasma drug concentration in relation to the administration dose” value (single s.c. injection, 0.5, 1.5 and 4.5 mg/kg) is recorded as “directly proportional to the administration dose”.
